In patent US12397035B2, “Compositions and methods for treatment” (Celosia Therapeutics Pty Ltd, priority 2019, dated 2025):

Assays:
Type in all cases: binding
TDP-43 = target: T1, TDP-43 (Homo sapiens, UniProt Q13148); assay: Co-immunoprecipitation of Fx (α-helix 6 of 14-3-3θ) with TDP-43; settings: Fx expressed in cells, FIG. 5
T1 construct: expressed in transfected cells; host or cells: 293T HEK cells
Method: Immunoprecipitation. Immunoprecipitation was performed as previously described (Ittner et al., 2009, J Biol Chem 284: 20909-20916). Briefly, 293T HEK cells were co-transfected with variants of TDP-43 in pcDNA3.1/V5 and/or 14-3-3 isoforms/variants. Cells were lysed in RIPA buffer. Equal amounts of proteins were incubated overnight with 1 ul of V5 antibody (Life Technologies) and precipitated using magnetic Protein G beads (Life Technologies). Co-immunoprecipitation was further confirmed by Western blotting using myc antibodies.
Western blotting. Western blotting was performed as previously described (Ke et al., 2012, PLoS One 7: e35678). Primary antibodies used for immunoblotting were human TDP-43, c-terminal TDP-43, pan-TDP-43 (Proteintech), 14-3-3θ (Abeam), V5, myc (Life Technologies), phospho-TDP-43 S409/410 (Cosmobio), GAPDH (Merck-Millipore).
Cell culture and staining. All immunorecipitation experiments were carried out in 293T HEK cells. Cells were maintained in DMEM containing 10% fetal bovine serum (FBS) as per standard protocols. SH-SY5Y cells were maintained in DMEM/F-12 containing 10% FBS and used for 14-3-3θ overexpression or knockdown. Stable overexpression and knockdown of 14-3-3θ were achieved through lentiviral transduction. For immunocytochemistry, cells were fixed in 4% PFA and blocked with 3% heat-inactivated goat serum/2% BSA. […]

FOXO1 = target: T2, FOXO1 (Homo sapiens, UniProt Q12778); assay: Co-immunoprecipitation of Fx with known 14-3-3θ partner FOXO1; settings: data not shown
T2 construct: host or cells: 293T HEK cells
T2 sequence (Q12778 whole entry, species assumed): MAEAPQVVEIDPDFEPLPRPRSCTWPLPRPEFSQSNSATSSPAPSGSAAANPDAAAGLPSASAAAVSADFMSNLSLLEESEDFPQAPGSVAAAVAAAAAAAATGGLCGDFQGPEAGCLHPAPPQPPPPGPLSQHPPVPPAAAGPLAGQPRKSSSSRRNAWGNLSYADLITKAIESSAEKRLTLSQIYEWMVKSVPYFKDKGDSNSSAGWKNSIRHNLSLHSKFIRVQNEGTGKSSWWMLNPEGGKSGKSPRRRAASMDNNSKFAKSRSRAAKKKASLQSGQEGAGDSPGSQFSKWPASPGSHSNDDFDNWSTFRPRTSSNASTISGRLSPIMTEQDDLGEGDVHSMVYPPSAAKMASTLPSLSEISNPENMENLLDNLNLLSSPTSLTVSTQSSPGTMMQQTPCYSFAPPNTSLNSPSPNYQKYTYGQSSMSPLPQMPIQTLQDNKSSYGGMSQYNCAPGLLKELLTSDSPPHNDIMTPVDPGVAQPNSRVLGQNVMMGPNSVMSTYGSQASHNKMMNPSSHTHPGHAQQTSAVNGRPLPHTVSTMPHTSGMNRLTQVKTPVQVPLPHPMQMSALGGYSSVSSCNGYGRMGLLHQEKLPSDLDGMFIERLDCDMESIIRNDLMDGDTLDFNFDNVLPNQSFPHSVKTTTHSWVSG

[1] = target: T3, YES-associated protein (YAP) (Homo sapiens, UniProt P46937); assay: Co-immunoprecipitation of Fx with known 14-3-3θ partner YAP; settings: data not shown
T3 construct: host or cells: 293T HEK cells
T3 sequence (P46937 whole entry): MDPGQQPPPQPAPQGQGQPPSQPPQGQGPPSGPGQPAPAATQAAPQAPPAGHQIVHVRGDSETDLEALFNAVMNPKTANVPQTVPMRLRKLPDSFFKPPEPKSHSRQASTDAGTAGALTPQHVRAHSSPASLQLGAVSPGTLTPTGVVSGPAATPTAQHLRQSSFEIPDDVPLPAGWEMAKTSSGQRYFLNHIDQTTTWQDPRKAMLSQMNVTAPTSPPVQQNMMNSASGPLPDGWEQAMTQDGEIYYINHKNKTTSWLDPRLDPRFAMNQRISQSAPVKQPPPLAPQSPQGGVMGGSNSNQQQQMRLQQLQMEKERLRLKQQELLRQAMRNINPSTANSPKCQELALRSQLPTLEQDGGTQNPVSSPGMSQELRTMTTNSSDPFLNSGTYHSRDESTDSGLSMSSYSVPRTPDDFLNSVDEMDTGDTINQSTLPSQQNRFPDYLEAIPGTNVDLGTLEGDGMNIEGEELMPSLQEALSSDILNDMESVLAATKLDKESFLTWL

T1 sequence (Q13148 whole entry): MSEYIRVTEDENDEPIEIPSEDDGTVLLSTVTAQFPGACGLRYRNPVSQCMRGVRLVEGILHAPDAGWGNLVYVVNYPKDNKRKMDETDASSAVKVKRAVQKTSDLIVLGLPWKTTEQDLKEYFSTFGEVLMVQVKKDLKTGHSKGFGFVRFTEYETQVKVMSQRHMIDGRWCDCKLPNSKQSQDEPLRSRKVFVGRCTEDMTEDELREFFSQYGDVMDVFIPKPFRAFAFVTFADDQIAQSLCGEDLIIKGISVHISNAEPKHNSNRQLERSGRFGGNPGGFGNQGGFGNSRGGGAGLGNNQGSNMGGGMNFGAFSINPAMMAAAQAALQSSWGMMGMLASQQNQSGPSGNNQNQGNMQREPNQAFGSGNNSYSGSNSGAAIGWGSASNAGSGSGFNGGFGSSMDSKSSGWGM

- co-precipitation of TDP-43 (TDP-43): co-precipitated TDP-43
- pull down of FOXO1 (FOXO1): failed to pull down
- pull down of YES-associated protein (YAP) [1]: failed to pull down
Substance: Fx: construct including only α-helix 6 (αF) of 14-3-3θ, 30 amino acid sequence SEQ ID NO:2 (amino acids 135-164) (GDDRKQTIDNSQGAYQEAFDISKKEMQPTH; V5 tag in some forms; listed as Homo sapiens)
